Patent US20220135701A1 (Genentech, published 2022)
Like-named read-outs stand apart in the source and are kept apart here.

Columns and labels:
Assay in all cases: SPR BIAcore T200, Ab captured, 37C
[1] = target: T1, cynomolgus monkey MerTK (cynomolgus monkey, UniProt A0A2K5V1H9 32-505)
T1 construct: Soluble analyte in SPR; also called Cyno MerTK
T1 sequence: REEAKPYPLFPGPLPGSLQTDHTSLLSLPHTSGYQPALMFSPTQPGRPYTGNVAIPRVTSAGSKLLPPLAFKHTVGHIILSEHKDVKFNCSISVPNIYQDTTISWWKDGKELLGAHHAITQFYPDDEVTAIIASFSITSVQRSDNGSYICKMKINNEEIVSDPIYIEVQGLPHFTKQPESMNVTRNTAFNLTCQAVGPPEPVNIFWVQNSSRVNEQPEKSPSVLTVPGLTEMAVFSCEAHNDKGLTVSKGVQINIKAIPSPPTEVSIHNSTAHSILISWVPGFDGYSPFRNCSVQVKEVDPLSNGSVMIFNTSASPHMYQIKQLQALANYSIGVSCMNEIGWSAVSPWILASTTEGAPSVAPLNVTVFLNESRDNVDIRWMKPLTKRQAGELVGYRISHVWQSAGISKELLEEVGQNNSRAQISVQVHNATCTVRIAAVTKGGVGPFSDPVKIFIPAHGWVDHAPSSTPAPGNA
Outline: (§1)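 Rabbit or humanized antibody captured to ~100 RU; MerTK injected as 3-fold dilutions from 0.4 nM to 100 nM in HBS-EP (HEPES pH 7.4) at 30 μl/min, at 25° C. or 37° C. kon and koff fitted to a 1:1 Langmuir model; KD = koff/kon.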

[2] = target: T2, rat MerTK (rat, UniProt P57097 23-496, limits assumed)
T2 construct: Soluble analyte in SPR
T2 sequence (looked up): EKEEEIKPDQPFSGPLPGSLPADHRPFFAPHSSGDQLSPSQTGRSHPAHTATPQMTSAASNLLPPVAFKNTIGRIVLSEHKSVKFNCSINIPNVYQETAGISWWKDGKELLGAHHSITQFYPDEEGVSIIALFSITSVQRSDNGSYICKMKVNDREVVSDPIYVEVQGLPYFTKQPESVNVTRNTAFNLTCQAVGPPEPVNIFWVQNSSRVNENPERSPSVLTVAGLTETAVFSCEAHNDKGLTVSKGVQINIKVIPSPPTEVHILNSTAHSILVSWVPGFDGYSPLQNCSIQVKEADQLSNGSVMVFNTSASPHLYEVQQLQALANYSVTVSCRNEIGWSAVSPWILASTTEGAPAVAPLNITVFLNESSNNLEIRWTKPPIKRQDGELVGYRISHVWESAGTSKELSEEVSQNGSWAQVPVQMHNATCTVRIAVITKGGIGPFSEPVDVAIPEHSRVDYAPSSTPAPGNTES
Outline: as §1

[3] = target: T3, human MerTK (human, UniProt Q12866 26-499)
T3 construct: also called HuMER
T3 sequence: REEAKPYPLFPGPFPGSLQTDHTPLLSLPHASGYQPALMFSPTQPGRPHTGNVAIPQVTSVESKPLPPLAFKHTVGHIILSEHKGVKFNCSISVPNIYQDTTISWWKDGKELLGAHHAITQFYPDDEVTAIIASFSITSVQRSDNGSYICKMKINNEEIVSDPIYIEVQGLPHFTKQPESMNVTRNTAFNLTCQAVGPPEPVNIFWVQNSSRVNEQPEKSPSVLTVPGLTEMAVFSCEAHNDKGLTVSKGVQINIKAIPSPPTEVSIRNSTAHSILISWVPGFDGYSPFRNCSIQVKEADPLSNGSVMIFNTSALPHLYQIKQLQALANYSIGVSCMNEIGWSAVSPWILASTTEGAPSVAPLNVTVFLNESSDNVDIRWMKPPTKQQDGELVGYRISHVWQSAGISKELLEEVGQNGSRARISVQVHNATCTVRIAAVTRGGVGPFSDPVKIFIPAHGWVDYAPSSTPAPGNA
Outline: as §1

[4] = target: T4, mouse MerTK (mouse, UniProt Q60805 23-496)
T4 construct: also called MuMER
T4 sequence (looked up): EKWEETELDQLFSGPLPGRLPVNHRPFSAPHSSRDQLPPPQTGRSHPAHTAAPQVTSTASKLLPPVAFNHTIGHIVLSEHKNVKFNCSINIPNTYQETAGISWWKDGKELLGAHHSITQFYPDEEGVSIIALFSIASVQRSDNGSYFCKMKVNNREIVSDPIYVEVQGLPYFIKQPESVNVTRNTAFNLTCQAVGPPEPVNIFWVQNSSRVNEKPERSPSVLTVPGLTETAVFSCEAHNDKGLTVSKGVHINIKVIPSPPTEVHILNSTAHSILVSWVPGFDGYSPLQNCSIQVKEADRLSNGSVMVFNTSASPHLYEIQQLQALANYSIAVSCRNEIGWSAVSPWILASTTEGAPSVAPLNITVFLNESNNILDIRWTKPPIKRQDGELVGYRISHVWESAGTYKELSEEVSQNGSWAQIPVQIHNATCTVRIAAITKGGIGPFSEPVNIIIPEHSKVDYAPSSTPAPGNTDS
Outline: as §1

[5] = target: T3, human MerTK; remark: listed apart in the source
[6] = target: T1, cynomolgus monkey MerTK; remark: listed apart in the source
Procedure: (§2) All binding affinity determinations were obtained using Surface Plasmon Resonance (SPR) measurements from a BIAcore™-T200 instrument. Briefly, each rabbit or humanized antibody was captured to achieve approximately 100 RU (Response Units). Then, 3-fold serial dilutions of MerTK from various species (0.4 nM to 100 nM) diluted in HBS-EP buffer (0.01M HEPES pH 7.4, 0.15M NaCl, 3 mM EDTA and 0.05% v/v surfactant P20) was injected into the BIAcore™-T200 instrument at 25° C. or 37° C. with a flow rate of 30 μl/min. Association rates (kₒₙ) and dissociation rates (koff) were calculated using a simple one-to-one Langmuir binding model (BIAcore T200 evaluation software version 2.0). The equilibrium dissociation constant (KD) was calculated as the ratio koff/kₒₙ.

[7] = target: T2, rat MerTK; remark: listed apart in the source
Procedure: as §2

[8] = target: T3, human MerTK; remark: listed apart in the source
Procedure: as §2

[9] = target: T4, mouse MerTK; remark: listed apart in the source
Procedure: as §2

B1: h10C3.v1 (antibody, V domains shown)
VH: EQQLVESGGGLVQPGGSLRLSCAASGFSLSGYTMGWVRQAPGKGLEYIGVISSGGTTYYTNWAKGRFTISKDSSKNTVYLQMGSLRAEDMAVYFCARVAFTAYGGGGFPTLHRLDLWGQGTLVTVSS
VL: DQVLTQSPDSLAVSLGERATINCQSSESVYNNDYLAWYQQKPGQPPKLLIYSASTLASGVPDRFSGSGSGTDFTLTISSLQAEDVAVYYCAGGYLGNNVFGGGTKVEIK
notes: also called h10C3.V1 (Parent); 10C3 Humanized mAb V1
- Kd [1]: 5.3 nM
- Kd [2]: 3.3 nM
- Kd [3]: 11.6 nM
- Kd [4]: 1 nM
- Kd [5]: 13.8 nM
- Kd [6]: 5.3 nM
- Kd [7]: 3.3 nM
- Kd [8]: 12.9 nM
- Kd [9]: 1.1 nM
